Reference: PMC2788870

Biological target: His6-HPr (B. subtilis) (UniProt P08877)
Test: pull-down

Sequence of UniProt P08877 (P08877 whole entry): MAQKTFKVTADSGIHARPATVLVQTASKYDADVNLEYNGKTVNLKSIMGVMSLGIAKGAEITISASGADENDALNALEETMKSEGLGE

- stoichiometry N: 1
Substance: GST-HBD (from UniProt O31522 403-515) (domain or fragment)
